# Data published in patent publication US7629135B2, “Toll-like receptor agonists and antagonists and methods of use thereof” (The Board of Trustees of the University of Illinois, priority 2006, dated 2009).
# Key:
# TLR2 [1] = molecular target: T1, TLR2 (Homo sapiens, UniProt O60603); assay: NF-κB luciferase reporter assay in TLR2-HeLa cells; assay type: cell-based
# T1 construct: host or cells: HeLa
# Method: (§1) To determine whether TLR2 is a receptor for SAA, a TLR2-expressing cell line was prepared in HeLa cells, which contain very little endogenous TLR2 transcript (FIG. 6A, upper panel). […] TLR2 is a class I transmembrane protein that contains an extracellular ligand binding domain (ectodomain), a transmembrane domain and a cytoplasmic domain consisting of the Toll/IL-1/receptor/Resistance (TIR) motif. Studies have shown that TLR2 forms heterodimers with TLR1 and TLR6 (Ozinsky et al., 2000), which display different preference for TLR2 ligands (Hoebe et al., 2005; Takeuchi et al., 2002). The C-terminal TIR domain is conserved among TLRs and responsible for TLR signaling (O'Neill and Bowie, 2007; Takeda and Akira, 2004). To assess the relative contributions of TLRs to SAA signaling, TLR1, TLR2, TLR4 and TLR6 were overexpressed in the TLR2-HeLa cells, and their effects on SAA-induced NF-κB luciferase reporter activity were determined. […] In addition, the TIR domain deletion mutants (ΔTIR) of these receptors were expressed, which are negative regulators of TLR signaling.
# (§2) Methods for the generation of TLR2-HeLa stable cell line: HeLa cells stably transfected with human TLR2 gene were generated by transfecting HeLa cells with the expression construct pUNO-hTLR2 (InvivoGen, San Diego, Calif.; GenBank accession number for human TLR2 cDNA is NM_003264) and selected with Blasticidin at concentration of 20 μg/ml for 2 weeks. The control HeLa cells were generated at the same time by transfecting with empty pUNO vector. Cells were maintained in DMEM supplemented with 10% heat-inactivated FB S, 2 mM L-glutamine, 100 IU/ml penicillin, and 50 μg/ml streptomycin. Expression of TLR2 was confirmed using an anti-TLR2 antibody (eBioscience) and FTTC-conjugated anti-mouse antibody, on a FACSCalibur flow cytometer (Becton Dickinson). The TLR2-HeLa and control cells were then co-transfected with 5xNF-κB reporter plasmids (pNF-κB-Luc, Stratagene, Cedar Creek, Tex., catalog no. 219077) and empty SFFV vector bearing a neomycin resistant gene. The TLR2-HeLa/NF-κB reporting cells were obtained after selecting with G418 at concentration of […] for 2-3 weeks. Cells (5′10^5/ml) were grown in DMEM supplemented with 10% heat-inactivated FBS, 2 mM L-glutamine, 100 IU/ml penicillin, and […] streptomycin.
# (§3) Methods for using HeLa cells in reporter assay: Mock-transfected HeLa and TLR2-HeLa cells were maintained at ˜5×10^5 cells/well in six-well plates, transfected with plasmid expression vectors coding for a 3×κB-directed luciferase reporter, pCMVβ vector DNA (Promega) and/or other expression constructs as indicated. Total DNA concentration was adjusted to 1 μg/sample by addition of empty vector DNA. Transient transfection was performed using LipofectAmine Plus reagent (Invitrogen). […]
# TLR2 [2] = assay: NF-κB luciferase reporter assay in TLR2-HeLa cells; assay type: cell-based, human; conditions: TLR2-HeLa cells, p<0.01
# Method: as §1, §2, §3
# [3] = tested on: RelA/p65 binding to the CK-1 site of the G-CSF promoter; assay: Chromatin immunoprecipitation (ChIP) assay in RAW264.7 cells; assay type: cell-based, mouse; conditions: SAA 1 μM or TNFα 50 ng/ml
# Method: To investigate the mechanism for SAA-induced G-CSF production, the level of G-CSF transcript in SAA-stimulated BMDM was determined. […] The induction of G-CSF transcript peaked at 4 h after SAA stimulation. Since transcription of the G-CSF gene involves NF-κB binding to the RelA/p65 consensus element in the CK-1 site of the G-CSF promoter (Dunn et al., 1994; Hareng and Hartung, 2002), the role of NF-κB in SAA-stimulated G-CSF expression was determined. […] Using oligonucleotide probe based on the sequence of the CK-1 site (−161 to −152 in the G-CSF promoter), a protein •DNA complex (FIG. 2C) was identified. […] Inclusion of a RelA/p65 antibody blocking peptide in the assay abrogated the immunoprecipitation (FIG. 2D).
# ChIP assay: Reagents were obtained from Upstate Biotechnology, and ChIP assay was performed as per manufacturers specifications with minor modifications. Briefly, a total of 1×10^7 RAW264.7 cells were harvested and resuspended in a serum-free DMEM medium absence or presence of 1 μM SAA, or 50 ng/ml of TNFα, and incubated for 30 or 60 min at 37° C. Following stimulation, cells were crosslinked and then washed and resuspended in SDS-lysis buffer, and were sonicated (4 times for 10 s each, with a setting at ‘4’ on a Fisher Sonic 60 dismembrenator). […] The PCR products were analyzed on a 2.5% agarose gel.
# T1 sequence (O60603 21-784): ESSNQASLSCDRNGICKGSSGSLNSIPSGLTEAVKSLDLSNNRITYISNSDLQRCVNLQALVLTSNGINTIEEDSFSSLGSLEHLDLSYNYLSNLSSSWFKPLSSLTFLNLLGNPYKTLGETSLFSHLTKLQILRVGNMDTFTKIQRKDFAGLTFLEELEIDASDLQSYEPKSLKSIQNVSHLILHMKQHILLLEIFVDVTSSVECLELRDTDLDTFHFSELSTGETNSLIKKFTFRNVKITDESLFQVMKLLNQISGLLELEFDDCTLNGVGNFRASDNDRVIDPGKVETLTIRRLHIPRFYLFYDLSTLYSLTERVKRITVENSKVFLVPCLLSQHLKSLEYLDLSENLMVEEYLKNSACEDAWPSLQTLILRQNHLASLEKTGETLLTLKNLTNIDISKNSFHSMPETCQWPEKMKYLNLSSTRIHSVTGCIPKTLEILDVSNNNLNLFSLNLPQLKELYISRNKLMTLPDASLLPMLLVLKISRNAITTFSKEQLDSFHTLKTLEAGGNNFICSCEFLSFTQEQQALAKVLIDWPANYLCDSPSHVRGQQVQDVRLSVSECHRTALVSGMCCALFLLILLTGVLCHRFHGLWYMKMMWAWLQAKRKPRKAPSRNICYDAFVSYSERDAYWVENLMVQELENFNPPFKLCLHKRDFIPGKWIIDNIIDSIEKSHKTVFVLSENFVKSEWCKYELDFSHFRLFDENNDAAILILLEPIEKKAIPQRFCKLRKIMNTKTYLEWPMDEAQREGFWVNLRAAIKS
# T1 sequence (Q15399 25-786 partner): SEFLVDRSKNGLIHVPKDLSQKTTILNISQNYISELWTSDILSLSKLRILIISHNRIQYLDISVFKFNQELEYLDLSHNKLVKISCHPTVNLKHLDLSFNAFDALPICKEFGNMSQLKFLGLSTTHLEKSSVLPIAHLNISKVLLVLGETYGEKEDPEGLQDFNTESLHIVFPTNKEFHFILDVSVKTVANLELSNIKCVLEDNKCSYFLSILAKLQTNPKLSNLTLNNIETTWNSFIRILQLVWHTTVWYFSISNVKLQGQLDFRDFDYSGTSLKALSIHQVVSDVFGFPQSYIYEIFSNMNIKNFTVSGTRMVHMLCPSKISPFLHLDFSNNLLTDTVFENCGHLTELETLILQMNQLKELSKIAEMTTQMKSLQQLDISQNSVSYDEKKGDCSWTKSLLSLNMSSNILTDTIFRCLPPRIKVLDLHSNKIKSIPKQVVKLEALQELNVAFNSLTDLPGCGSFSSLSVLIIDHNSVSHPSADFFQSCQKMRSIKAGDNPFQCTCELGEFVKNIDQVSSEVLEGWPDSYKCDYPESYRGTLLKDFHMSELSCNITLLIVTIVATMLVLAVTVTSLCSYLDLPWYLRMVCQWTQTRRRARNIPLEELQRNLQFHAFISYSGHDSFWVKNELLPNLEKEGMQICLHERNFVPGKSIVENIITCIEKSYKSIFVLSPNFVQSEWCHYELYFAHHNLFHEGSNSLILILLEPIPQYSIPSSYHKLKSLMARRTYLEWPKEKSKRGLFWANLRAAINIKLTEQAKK
molecule,measurement,setting,value
"SAA: Recombinant human SAA purchased from PeproTech; major acute-phase protein of 104 amino acids (protein, UniProt P0DJI8 19-122, looked up) Serum amyloid A-1 protein: RSFFSFLGEAFDGARDMWRAYSDMREANYIGSDKYFHARGNYDAAKRGPGGAWAAEVITDARENIQRFFGHGAEDSLADQAANEWGRSGKDPNHFRPAGLPEKY",NF-κB luciferase activity,"TLR2 [1]; SAA-stimulated TLR2-HeLa vs mock-transfected HeLa cells, p<0.01",significantly increased NF-κB luciferase activity
same,SAA-induced NF-κB luciferase activity with exogenous expression of TLR1,TLR2 [1]; TLR2-HeLa cells overexpressing TLR1,potentiated SAA-induced NF-κB luciferase activity
same,"SAA-induced NF-κB luciferase activity with ΔTIR mutants of TLR1, TLR2 and TLR6",TLR2 [2],significant inhibition
same,pull-down of CK-1 DNA fragment by anti-RelA/p65 antibody,[3],able to pull-down the CK-1 DNA fragment
